Paper PMC10397247
Like-named read-outs stand apart in the source and are kept apart here.

How the values were obtained:
4H446-AA = target: T1, 4H446-AA; assay: two-hybrid library CCmax; conditions: mean of both orientations;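 further: natural log of median RNA to DNA barcode read ratio; higher means stronger binding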
T1 chain: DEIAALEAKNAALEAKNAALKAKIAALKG

4H3915-AA = target: T2, 4H3915-AA; assay: two-hybrid library CCmax; conditions: mean of both orientations;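 further: natural log of median RNA to DNA barcode read ratio; higher means stronger binding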
T2 chain: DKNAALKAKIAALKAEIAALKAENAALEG

4H3777-AA = target: T3, 4H3777-AA; assay: two-hybrid library CCmax; conditions: mean of both orientations;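 further: natural log of median RNA to DNA barcode read ratio; higher means stronger binding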
T3 chain: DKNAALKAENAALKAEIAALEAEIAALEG

4H3629-AA = target: T4, 4H3629-AA; assay: two-hybrid library CCmax; conditions: mean of both orientations;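 further: natural log of median RNA to DNA barcode read ratio; higher means stronger binding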
T4 chain: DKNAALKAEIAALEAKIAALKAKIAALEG

4H3449-AA = target: T5, 4H3449-AA; assay: two-hybrid library CCmax
T5 chain: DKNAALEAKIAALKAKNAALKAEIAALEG

4H432-AA = target: T6, 4H432-AA; assay: two-hybrid library CCmax; conditions: mean of both orientations
T6 chain: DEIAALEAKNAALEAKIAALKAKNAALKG

4H3974-AA = target: T7, 4H3974-AA; assay: two-hybrid library CCmax; conditions: mean of both orientations
T7 chain: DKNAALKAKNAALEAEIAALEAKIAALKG

4H63-AA = target: T8, 4H63-AA; assay: two-hybrid library CCmax
T8 chain: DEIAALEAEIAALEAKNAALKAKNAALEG

4H3619-AA = target: T9, 4H3619-AA; assay: two-hybrid library CCmax; conditions: mean of both orientations
T9 chain: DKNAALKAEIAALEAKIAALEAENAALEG

4H380-AA = target: T10, 4H380-AA; assay: two-hybrid library CCmax; conditions: mean of both orientations
T10 chain: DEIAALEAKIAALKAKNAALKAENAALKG

4H949-bH = target: T11, 4H949-bH; assay: two-hybrid library CCNG1
T11 chain: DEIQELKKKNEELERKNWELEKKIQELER

4H662-AA = target: T12, 4H662-AA; assay: two-hybrid library CCmax
T12 chain: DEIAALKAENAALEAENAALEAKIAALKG

4H55-AA = target: T13, 4H55-AA; assay: two-hybrid library CCmax
T13 chain: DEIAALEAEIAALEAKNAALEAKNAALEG

APC8401-AA = target: T14, APC8401-AA; assay: two-hybrid library CCmax; conditions: mean of both orientations
T14 chain: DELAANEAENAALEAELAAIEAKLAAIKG

APC9182-AA = target: T15, APC9182-AA; assay: two-hybrid library CCmax; conditions: mean of both orientations
T15 chain: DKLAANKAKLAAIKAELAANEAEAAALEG

APC9806-AA = target: T16, APC9806-AA; assay: two-hybrid library CCmax; conditions: mean of both orientations
T16 chain: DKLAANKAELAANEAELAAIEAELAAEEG

APC9141-AA = target: T17, APC9141-AA; assay: two-hybrid library CCmax; conditions: mean of both orientations
T17 chain: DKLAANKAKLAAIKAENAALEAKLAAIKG

APC7524-AA = target: T18, APC7524-AA; assay: two-hybrid library CCmax
T18 chain: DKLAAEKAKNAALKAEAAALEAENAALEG

APC9291-AA = target: T19, APC9291-AA; assay: two-hybrid library CCmax; conditions: mean of both orientations
T19 chain: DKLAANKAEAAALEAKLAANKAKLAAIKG

APC8516-AA = target: T20, APC8516-AA; assay: two-hybrid library CCmax; conditions: mean of both orientations
T20 chain: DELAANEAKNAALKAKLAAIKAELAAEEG

Binder: DKNAALEAKIAALKAKNAALKAEIAALEG [4H3449-AA]
- interaction score (4H446-AA): -1.41
- interaction score (4H3915-AA): -1.74
- interaction score (4H3777-AA): -2.46
- interaction score (4H3629-AA): -1.65
- interaction score (4H3449-AA): -2.07
- interaction score (4H432-AA): 0.499
- interaction score (4H3974-AA): -0.638
- interaction score (4H63-AA): -1.51
- interaction score (4H3619-AA): -1.01
- interaction score (4H380-AA): -1.96

Binder: DEIQELKKKNEELERKNWELEKKIQELER [4H949-bH]
- interaction score (4H949-bH): 0.634

Binder: DEIAALEAEIAALEAKNAALEAKNAALEG [4H55-AA]
- interaction score (4H662-AA; mean of both orientations): -1.57
- interaction score (4H55-AA): -1.54

Binder: DEIAALKAENAALEAENAALEAKIAALKG [4H662-AA]
- interaction score (4H662-AA): 0.217

Binder: DKLAAEKAKNAALKAEAAALEAENAALEG [APC7524-AA]
- interaction score (APC8401-AA): -1.27
- interaction score (APC9182-AA): -1.85
- interaction score (APC9806-AA): -1.98
- interaction score (APC9141-AA): -1.69
- interaction score (APC7524-AA): -1.65
- interaction score (APC9291-AA): -1.72
- interaction score (APC8516-AA): -1.83
